This is an account of results in patent US20210047402A1 (published 2021).

Numbering of substitutions follows the chain as printed.

B1: anti-CD22 heavy chain-only antibody Clone ID 335182 (antibody, V domains shown)
VH: QLQLQESGPGLVKPSETLSLTCTVSGDSISSGDYYWGWIRQPPGKGLEWIGNIYYSGATYYNPSLKNRVTISVDTSKNQFSLKLSSVTAADTAVYYCTRDDSSNWRSRGQGTLVTVSS
B2: anti-CD22 heavy chain-only antibody Clone ID 335170 (antibody, V domains shown)
VH: B1 VH with N52H, K77R
B3: anti-CD22 heavy chain-only antibody Clone ID 335307 (antibody, V domains shown)
VH: B1 VH with N52S, A58S, N67S, D100E, N104S
B4: anti-CD22 heavy chain-only antibody Clone ID 335260 (antibody, V domains shown)
VH: B1 VH with N52H, A58V, K77R, K83N, D100E, N104S
B5: anti-CD22 heavy chain-only antibody Clone ID 335301 (antibody, V domains shown)
VH: B1 VH with D100E, N104S
B6: anti-CD22 heavy chain-only antibody Clone ID 335234 (antibody, V domains shown)
VH: B1 VH with D100E
B7: anti-CD22 heavy chain-only antibody Clone ID 324508 (antibody, V domains shown)
VH: B1 VH with D27G, N52H, K66E
B8: anti-CD22 heavy chain-only antibody Clone ID 335176 (antibody, V domains shown)
VH: B1 VH with N52H
B9: anti-CD22 heavy chain-only antibody Clone ID 335271 (antibody, V domains shown)
VH: B1 VH with Q41H, N52H, D100E, N104S
B10: anti-CD22 heavy chain-only antibody Clone ID 335206 (antibody, V domains shown)
VH: B1 VH with N52H, D100E
B11: anti-CD22 heavy chain-only antibody Clone ID 335261 (antibody, V domains shown)
VH: B1 VH with N52H, K66E, D100E, N104S
B12: anti-CD22 heavy chain-only antibody Clone ID 335160 (antibody, V domains shown)
VH: B1 VH with N52S
B13: anti-CD22 heavy chain-only antibody Clone ID 335161 (antibody, V domains shown)
VH: B1 VH with N52H, K66E
B14: anti-CD22 heavy chain-only antibody Clone ID 335218 (antibody, V domains shown)
VH: B1 VH with N52H, K77R, D100E
B15: anti-CD22 heavy chain-only antibody Clone ID 335201 (antibody, V domains shown)
VH: B1 VH with N52H, A58V, K77R, D100E
B16: anti-CD22 heavy chain-only antibody Clone ID 335151 (antibody, V domains shown)
VH: B1 VH with N52H, K77R, K83N
B17: anti-CD22 heavy chain-only antibody Clone ID 335185 (antibody, V domains shown)
VH: B1 VH with N52H, K77R, K83N, D100E
B18: anti-CD22 heavy chain-only antibody Clone ID 335244 (antibody, V domains shown)
VH: B1 VH with N52H, K77R, K83N, D100E, N104S
B19: anti-CD22 heavy chain-only antibody Clone ID 335207 (antibody, V domains shown)
VH: B1 VH with N52H, A58V, N67S, K77R, D100E
B20: anti-CD22 heavy chain-only antibody Clone ID 335245 (antibody, V domains shown)
VH: B1 VH with N52H, D100E, N104S
B21: anti-CD22 heavy chain-only antibody Clone ID 335181 (antibody, V domains shown)
VH: B1 VH with D33G, N52H
B22: anti-CD22 heavy chain-only antibody Clone ID 335323 (antibody, V domains shown)
VH: B1 VH with D33G, N52S, A58S, D100E, N104S
B23: anti-CD22 heavy chain-only antibody Clone ID 335158 (antibody, V domains shown)
VH: B1 VH with D27G, N52H, K77R
B24: anti-CD22 heavy chain-only antibody Clone ID 335154 (antibody, V domains shown)
VH: B1 VH with N52H, A58V
B25: anti-CD22 heavy chain-only antibody Clone ID 335203 (antibody, V domains shown)
VH: B1 VH with N52H, A58V, D100E
B26: anti-CD22 heavy chain-only antibody Clone ID 335254 (antibody, V domains shown)
VH: B1 VH with N52H, A58V, D100E, N104S
B27: anti-CD22 heavy chain-only antibody Clone ID 335263 (antibody, V domains shown)
VH: QLQLQESGPGLVKPSETLSLTCTVSGGSINDNSHYWGWIRQPPGKGLEWIGHIYYSGATYYNPSLKNRVTISVDTSRNQFSLNLSSVTAADTAVYYCTREDSSSWRSRGQGTLVTVSS
B28: anti-CD22 heavy chain-only antibody Clone ID 335232 (antibody, V domains shown)
VH: B1 VH with N52H, K77R, F80S, K83N, D100E
B29: anti-CD22 heavy chain-only antibody Clone ID 335171 (antibody, V domains shown)
VH: B1 VH with D27G, G32S, D33S, N52S, K77R, K83N

T1 sequence (P20273 20-687): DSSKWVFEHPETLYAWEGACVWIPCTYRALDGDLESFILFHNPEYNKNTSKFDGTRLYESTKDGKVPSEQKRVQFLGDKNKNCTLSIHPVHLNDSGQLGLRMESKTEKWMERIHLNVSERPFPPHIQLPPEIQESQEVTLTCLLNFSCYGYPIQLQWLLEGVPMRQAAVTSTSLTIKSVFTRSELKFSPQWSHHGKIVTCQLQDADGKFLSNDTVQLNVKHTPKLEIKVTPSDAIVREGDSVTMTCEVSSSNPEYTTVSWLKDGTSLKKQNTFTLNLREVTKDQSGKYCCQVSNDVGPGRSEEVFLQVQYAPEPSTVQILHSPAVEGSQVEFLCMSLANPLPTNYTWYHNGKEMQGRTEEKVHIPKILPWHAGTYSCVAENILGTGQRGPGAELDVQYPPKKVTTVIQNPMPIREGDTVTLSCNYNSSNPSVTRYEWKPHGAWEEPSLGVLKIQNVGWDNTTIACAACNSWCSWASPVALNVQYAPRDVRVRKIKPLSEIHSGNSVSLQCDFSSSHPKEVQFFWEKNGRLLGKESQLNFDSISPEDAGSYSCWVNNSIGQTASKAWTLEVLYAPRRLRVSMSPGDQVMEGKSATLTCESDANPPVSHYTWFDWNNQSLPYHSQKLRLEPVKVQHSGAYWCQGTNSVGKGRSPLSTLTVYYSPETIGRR

For the first experiment, the target named is T1, human CD22 (human, UniProt P20273 20-687). Put plainly: BLI. An outline of the steps:
(§1)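 Affinity for human CD22 protein was measured by biolayer interferometry on an Octet QK-384 with anti-human IgG Fc capture biosensors, in 1×PBS, 0.1% BSA, 0.02% Tween-20, pH 7.2. Heavy chain-only antibodies were loaded at 5 μg/mL for 120 seconds, then dipped into a 7-point 1:2 dilution series of CD22 starting at 250 nM, with a buffer-only reference well. Kd was derived as koff/kon from a 1:1 binding model fit in Octet Data Analysis v9.0.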
A general note: Biolayer interferometry detects binding as a change in optical thickness at a sensor tip.
As for B1, the Kd (commonly the constant that tells how readily two partners part at equilibrium) was 22.4 nM. This counts as double-digit nanomolar.
For the molecule B2, the Kd came out at 6.5 nM.
The molecule B3 showed a Kd of 10.3 nM.
The molecule B4 registered a Kd of 3.17 nM.
Molecule B5 registered a Kd of 12.6 nM.
The molecule B6 had a Kd of 12.4 nM.
The molecule B7 returned a Kd of 12.5 nM.
Molecule B8 yielded a Kd of 4.62 nM. Compared with the last molecule, the Kd is about 2.7-fold lower.
Still for that read-out and setting: the value for B9 was 21.6 nM; that for B10 was 7.53 nM; that for B11 was 5.27 nM.
The molecule B12 had a Kd of 8.51 nM.
Molecule B13 showed a Kd of 2.66 nM.
For B14, binding was put at a Kd of 8.91 nM.
On to B15, for which the Kd came out at 5.19 nM.
In the case of B16, the Kd turned out to be 3.77 nM.
B17: binding was put at a Kd of 8.43 nM.
Molecule B18 displayed a Kd of 5.07 nM.
As for B19, the affinity, expressed as Kd, was 3.24 nM. This Kd is about 1.6-fold lower than that of the molecule before.
As to B20, the Kd was found to be 7.44 nM.
Consider B21, for which the Kd was determined as 9.44 nM.
B22 displayed a Kd of 14.1 nM.
Same read-out and setting: the value for B23 was 42.3 nM; that for B24 was 5.41 nM; that for B25 was 6.8 nM.
For the molecule B26, the Kd was 2.83 nM. Against the preceding molecule, the Kd is about 2.4-fold lower.

In the next experiment the target is T1, human CD22. Put plainly: BLI. The source holds these as a separate data set. In outline:
as §1
On to B27, for which the Kd was 2580 nM. That is a single-digit micromolar value.
B28 came in with a Kd of 24.6 nM.
Still for that read-out and setting: the value for B29 was 84.5 nM.
